The values below come from US20220204643A1 (published 2022).

The target in assay [1] is T1, glucuronidase, beta pseudogene (human).
T1 construct: on protein array; also called BC025996.2_frag
T1 chain: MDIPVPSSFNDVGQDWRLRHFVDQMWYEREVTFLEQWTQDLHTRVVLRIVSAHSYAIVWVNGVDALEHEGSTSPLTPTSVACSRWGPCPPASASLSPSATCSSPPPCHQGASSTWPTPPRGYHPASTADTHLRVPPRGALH
The assay can be described thus: protein array.

Assay [2] concerns the target T2, oxidation resistance 1, transcript variant 1 (human, UniProt Q8N573 90-874, limits assumed).
T2 construct: on protein array; also called OXR1
T2 sequence: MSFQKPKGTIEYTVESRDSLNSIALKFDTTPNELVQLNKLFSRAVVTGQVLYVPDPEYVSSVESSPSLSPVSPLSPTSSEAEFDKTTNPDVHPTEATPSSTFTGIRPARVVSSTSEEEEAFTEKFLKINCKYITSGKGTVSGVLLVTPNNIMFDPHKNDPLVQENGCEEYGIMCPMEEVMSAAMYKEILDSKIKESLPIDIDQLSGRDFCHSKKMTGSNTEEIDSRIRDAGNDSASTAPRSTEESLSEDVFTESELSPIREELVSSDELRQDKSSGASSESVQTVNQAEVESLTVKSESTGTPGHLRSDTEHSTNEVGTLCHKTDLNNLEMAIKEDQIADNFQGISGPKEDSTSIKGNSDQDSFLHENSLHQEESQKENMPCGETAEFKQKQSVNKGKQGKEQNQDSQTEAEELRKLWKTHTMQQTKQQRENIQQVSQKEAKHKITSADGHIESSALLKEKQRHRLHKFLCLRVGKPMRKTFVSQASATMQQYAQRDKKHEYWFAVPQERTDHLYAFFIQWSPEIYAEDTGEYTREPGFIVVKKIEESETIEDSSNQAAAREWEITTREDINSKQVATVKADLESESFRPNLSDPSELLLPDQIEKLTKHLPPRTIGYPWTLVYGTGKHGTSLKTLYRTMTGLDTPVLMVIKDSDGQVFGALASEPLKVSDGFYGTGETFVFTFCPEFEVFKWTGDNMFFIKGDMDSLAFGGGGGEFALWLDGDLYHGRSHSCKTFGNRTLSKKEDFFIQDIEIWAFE
The assay can be described thus: protein array.

B1: TBRE1006 (antibody, V domains shown)
VH: QVQLVQSGAEVKKPGASVKVSCKASGYIFTSYAIHWVRQAPGQRLEWMGWINAGNGNTKYSQKFQGRVTITRDTSANTAYMELSSLRSEDTAIYYCARDIAVAITNYFGSWGQGTLVTVSS
VL: EIVLTQSPATLSLSPGERATLSCRASQSVGSYLAWYQQKPGQAPRLLIYDASNRATGIPARFSGSGSGTDFTLTISSLEPEDFAVYYCQQGSNWLALTFGGGTKVEIKR
notes: VH/VL only
For the molecule B1, in assay [1], the binding result is given as “binds”.

B2: TPRO1001 (antibody, V domains shown)
VH: EVQLVQSGAEVKKPGESLRISCKGSGYSFTSFWISWVRQMPGKGLEWMGRIDPSDSYTNYSPSFQGHVTISADKSISTAFLQWSSLKASDTAMYYCARHQQKYSPISPLDYWGQGTLVTVSS
VL: QSALTQPASVSGSPGQSITISCTGTSSDVGGYNYVSWYQQHPGKAPKLMIYDVSNRPSGVSNRFSGSKSGNTASLTISGLQAEDEADYYCSSYTSSSSLVFGGGTKVTVLG
notes: VH/VL tied via antigen in summary, not by name in this stretch
B2: the binding result in assay [2] is recorded as “binds”.
